The text below walks through data of article PMC9723645 (Nucleic Acids Research, 2022).

The labels stand for the following.
B1: LU5 llama-VHH nanobody (naive) (VHH)
VHH: QVQLVESGGGLVQAGASLRLSCAASGGTLVNSSMGWFRQAPGKERDFVATINWRGDTTWYGESVKGRFSISRDNAKNTVYLQMNSLNPEDTAVYYCAVYRTRYYTGRRMMSPDEYDVWGQGTQVTVSS
B2: LM52 llama-VHH nanobody (mutated) (VHH)
VHH: QVQLVESGGGLVQAGASLRLSCAASGGTLVNSSMGWFRQAPGKERDFVATINWRGDTTWYGESVKGRFSISRDNTKNMVYLQMNSLKPEDTAVYYCAVYRTRYYTGRRMMSPDEYDVWGQGTQVTVSS
B3: LU68 llama-VHH nanobody (naive) (VHH)
VHH: QVQLVESGGGLVQAGGSLRLSCAASGRTLSRYAVGWFRQAPGKEREFVAVVHWNGVSTYYAEPVKGRFTISRDNAKNTVYLQMNSLKPDDTAVYYCAAATTSYVDIYTTDYDYWGQGTQVTVSS
B4: LM41 llama-VHH nanobody (mutated) (VHH)
VHH: QVQLVESGGGLVQAGGSLRLSCAASGRTLSRYAVGWFRQAPGKEREFVAVVHWNGVSTYHAEPVKGRFTISRDNAKNTVYLQMNSLKPDDTAVYYCAAATTSYVDIYTTDYDYWGQGTQVTVSS
B5: F9 llama-VHH nanobody (affinity maturated) (VHH)
VHH: QVQLVESGGGLAQAGGSLRLSCAASGRTFSDNTMAWHRQGPGKQRGLVAFITTGGRTVYTDSVKGRFIISRDNAKNTGYLQMNSLKPEDTAVYYCFVAGNWGQGTQVTVSS
B6: A3 llama-VHH nanobody (original) (VHH)
VHH: QVQLVESGGGLVQAGGSLRLSCAASGRTFSDNTMAWHRQGPGKQRGLVAFITTGGRTVYTDSVKGRFIISRDNAKNTGYLQMNSLKPEDTAVYYCYVAGNWGQGTQVTVSS
B7: OD1 llama-VHH nanobody (affinity maturated) (VHH)
VHH: QVQLVESGGGLVQAGGSLRLSCAASGRTFSDNTMAWHRQGPGKQRGLVAFITTGGRTVYTDSVKGRFIISRDNAKNTGFLQMNSLKPEDTAVYYCYVAGNWGQGTQVTVSS

Sequence of recombinant mouse artemin protein (Ala112-Gly224 fragment) (Q9Z0L2 112-224): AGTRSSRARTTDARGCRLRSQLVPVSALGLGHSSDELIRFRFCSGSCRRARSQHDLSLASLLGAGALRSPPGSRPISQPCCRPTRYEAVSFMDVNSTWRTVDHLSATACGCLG

The first assay addresses recombinant mouse artemin protein (Ala112-Gly224 fragment) (Mus musculus, UniProt Q9Z0L2). Put plainly: SPR.
With B1, the Kd – broadly, the concentration at which binding is half-saturated – amounted to 178 nM; the koff (usually the first-order rate constant of dissociation) is 0.0088 s⁻¹; the kon (in general, the rate constant with which the complex forms) is 49000 M⁻¹ s⁻¹.

In the case of B2, the Kd turned out to be 102 nM, the koff came out at 0.004 s⁻¹ and the kon came to 39000 M⁻¹ s⁻¹.

On to B3, for which the Kd was 456 nM, the koff was 0.023 s⁻¹ and the kon was 50000 M⁻¹ s⁻¹.

For the molecule B4, the Kd worked out at 111 nM, the koff was 0.0052 s⁻¹ and the kon was 46000 M⁻¹ s⁻¹.

A further assay deals with human fatty acid amide hydrolase (FAAH), amino acids 30-579, untagged (Homo sapiens, UniProt O00519). Put plainly: SPR. Background: Surface plasmon resonance follows binding to a sensor surface in real time, without labels.
Sequence of human fatty acid amide hydrolase (FAAH), amino acids 30-579, untagged (O00519 30-579): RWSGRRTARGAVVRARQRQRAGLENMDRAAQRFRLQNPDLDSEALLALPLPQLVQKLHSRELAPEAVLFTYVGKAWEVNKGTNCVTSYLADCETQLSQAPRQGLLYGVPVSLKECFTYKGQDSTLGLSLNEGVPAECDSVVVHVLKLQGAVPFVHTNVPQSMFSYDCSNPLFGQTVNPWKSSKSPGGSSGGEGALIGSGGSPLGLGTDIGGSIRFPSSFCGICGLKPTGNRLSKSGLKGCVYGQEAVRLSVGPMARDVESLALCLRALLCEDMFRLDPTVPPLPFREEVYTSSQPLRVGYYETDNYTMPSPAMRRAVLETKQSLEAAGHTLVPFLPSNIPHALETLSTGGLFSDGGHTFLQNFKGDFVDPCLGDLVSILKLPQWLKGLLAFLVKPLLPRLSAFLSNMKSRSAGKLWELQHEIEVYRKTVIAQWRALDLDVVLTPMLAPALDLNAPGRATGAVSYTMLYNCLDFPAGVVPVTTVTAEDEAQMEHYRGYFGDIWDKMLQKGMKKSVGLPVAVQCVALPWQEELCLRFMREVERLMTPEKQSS
In turn, B5 yielded a Kd of 1.26 nM, a koff of 0.000214 s⁻¹ and a kon of 169000 M⁻¹ s⁻¹.

B6 returned a Kd of 1.56 nM, a koff of 5.7e-05 s⁻¹ and a kon of 36400 M⁻¹ s⁻¹.

In the case of B7, binding was characterised by a dissociation constant (Kd) of 0.65 nM, the koff worked out at 0.000107 s⁻¹ and the kon worked out at 165000 M⁻¹ s⁻¹.
